Here are results for 1 molecule from PMC8225741, “Tumor-derived neomorphic mutations in ASXL1 impairs the BAP1-ASXL1-FOXK1/K2 transcription network” (Protein & Cell, 2020).

This assay deals with T1, SBP-tagged ASXL1^450–1,300 (human, UniProt Q8IXJ9 450-1300).
T1 construct: ASXL1, human, residues 450–1,300; cDNAs encoding SBP and ASXL1 450-1,300 cloned into pRK7-N-Flag; also called ASXL1 (residues 450–1,300); ASXL^450–1,300; source: HEK293T, overexpressed, immobilized to Streptavidin beads
T1 sequence (looked up): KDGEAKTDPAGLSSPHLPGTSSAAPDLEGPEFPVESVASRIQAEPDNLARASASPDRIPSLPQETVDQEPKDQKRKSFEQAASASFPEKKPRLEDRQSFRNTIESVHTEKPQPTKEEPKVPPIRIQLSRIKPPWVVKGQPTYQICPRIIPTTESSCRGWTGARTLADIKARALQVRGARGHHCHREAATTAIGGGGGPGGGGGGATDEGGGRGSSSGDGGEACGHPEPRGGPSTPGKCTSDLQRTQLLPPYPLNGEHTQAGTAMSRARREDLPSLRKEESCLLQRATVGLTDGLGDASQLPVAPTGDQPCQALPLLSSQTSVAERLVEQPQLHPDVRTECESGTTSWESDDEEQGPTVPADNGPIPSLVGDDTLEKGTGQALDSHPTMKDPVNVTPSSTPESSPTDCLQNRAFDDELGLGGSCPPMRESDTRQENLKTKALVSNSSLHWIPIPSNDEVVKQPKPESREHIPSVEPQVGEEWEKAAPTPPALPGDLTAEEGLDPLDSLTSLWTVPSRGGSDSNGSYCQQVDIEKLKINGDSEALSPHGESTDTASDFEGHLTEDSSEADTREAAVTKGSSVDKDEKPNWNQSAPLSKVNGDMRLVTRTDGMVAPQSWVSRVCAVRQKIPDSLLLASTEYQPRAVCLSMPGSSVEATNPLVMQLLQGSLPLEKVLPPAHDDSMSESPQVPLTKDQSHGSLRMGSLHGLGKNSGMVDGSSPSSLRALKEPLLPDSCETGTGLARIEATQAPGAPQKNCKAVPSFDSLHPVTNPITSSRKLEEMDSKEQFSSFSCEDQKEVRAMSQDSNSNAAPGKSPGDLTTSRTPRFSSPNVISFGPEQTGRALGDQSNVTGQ
The assay is described as follows: pull-down; SBP-tagged ASXL1^450–1,300 immobilized to Streptavidin beads, incubated with Flag-peptide-eluted FOXK1 at 4 °C for 3 h, washed 3 times, SDS-PAGE and Coomassie blue staining. To be noted: both partners purified.

B1: Flag-tagged full-length FOXK1 protein (natural protein, human, UniProt P85037 1-733, looked up)
chain: MAEVGEDSGARALLALRSAPCSPVLCAAAAAAAFPAAAPPPAPAQPQPPPGPPPPPPPPLPPGAIAGAGSSGGSSGVSGDSAVAGAAPALVAAAAASVRQSPGPALARLEGREFEFLMRQPSVTIGRNSSQGSVDLSMGLSSFISRRHLQLSFQEPHFYLRCLGKNGVFVDGAFQRRGAPALQLPKQCTFRFPSTAIKIQFTSLYHKEEAPASPLRPLYPQISPLKIHIPEPDLRSMVSPVPSPTGTISVPNSCPASPRGAGSSSYRFVQNVTSDLQLAAEFAAKAASEQQADTSGGDSPKDESKPPFSYAQLIVQAISSAQDRQLTLSGIYAHITKHYPYYRTADKGWQNSIRHNLSLNRYFIKVPRSQEEPGKGSFWRIDPASEAKLVEQAFRKRRQRGVSCFRTPFGPLSSRSAPASPTHPGLMSPRSGGLQTPECLSREGSPIPHDPEFGSKLASVPEYRYSQSAPGSPVSAQPVIMAVPPRPSSLVAKPVAYMPASIVTSQQPAGHAIHVVQQAPTVTMVRVVTTSANSANGYILTSQGAAGGSHDAAGAAVLDLGSEARGLEEKPTIAFATIPAAGGVIQTVASQMAPGVPGHTVTILQPATPVTLGQHHLPVRAVTQNGKHAVPTNSLAGNAYALTSPLQLLATQASSSAPVVVTRVCEVGPKEPAAAVAATATTTPATATTASASASSTGEPEVKRSRVEEPSGAVTTPAGVIAAAGPQGPGTGE
notes: FOXK1, human, full-length cDNA; Vector pRK7-N-Flag; source: HEK293T, overexpressed, purified by immunoprecipitation and eluted by Flag peptide; not shown: Flag, N-terminal, kept
Take B1: the binding result is recorded as “binds”.
